# Data as given in the supplement of paper PMC12764529.
# ± gives the half width of the 95% confidence interval.
# Legend:
# [1] = folding stability dG unfold from trypsin proteolysis; higher = more stable
# Method in brief: (§1)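 Digests were run with trypsin and chymotrypsin at 11 concentrations in threefold dilutions, plus a no-protease condition, on designed mini-proteins in a PA-tagged cDNA display construct. The mini-proteins were under 80 residues, had no cysteine, and were kept only when AlphaFold2 dimer inter-PAE was above 15. After sequencing, Bayesian fitting of the counts gave K50, from which unfolding free energy was derived against a sequence-predicted unfolded-state K50 and a shared folded-state K50, per protease or combined.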
# [2] = folding stability dG unfold (combined trypsin and chymotrypsin); higher = more stable
# Method in brief: as §1
# [3] = folding stability dG unfold from chymotrypsin proteolysis; higher = more stable
# Method in brief: as §1
Sequence,folding stability dG unfold [1] [kcal/mol],folding stability dG unfold [2] [kcal/mol],folding stability dG unfold [3] [kcal/mol]
SAGGMTEVSEVERSVIPDEGIPVTLERVETTVTVPPTTYKDEKGEVLPPGAVVHTESTVTIEERPELSAGGS [r8_262_JUSTAS],0.22 ± 0.036,0.257 ± 0.14,0.095 ± 0.1
SAGGMEYDPETKTFHLHVPGGNLPELREAIENAPDRLVTIEVEDPLTDKPRLFTLPAEEARKFLEAGSAGGS [r16_797_TrMRF],-0.182 ± 0.12,-0.254 ± 0.095,-0.455 ± 0.25
SAGGKVAAPAQPLASTKVERTTLPTGTTVTYVTVTSSAVPTPTTYTFSPGENPGDFAAATGLPVTLVSAGGS [r16_676_JUSTAS],-0.488 ± 0.29,0.126 ± 0.092,0.339 ± 0.083
SAGGSAGGSMKTTLLAEKELPDGTRVELTRVESPGSLTYEVVTVSPEGTEVRTLPPDELPYLLSAGGSAGGS [r12_315_JUSTAS],1.22 ± 0.082,0.912 ± 0.15,0.399 ± 0.23
SAMLVITRPDGRPYLVRLKVDKVEPSPDGTLITVEFTLELFSPDGTPETFKGTLIFDPKTGKLVLKIDPSAG [r14_789_TrMRF],2.83 ± 0.056,3.42 ± 0.075,3.71 ± 0.014
SAGMDMEEAEKLAEEIAEQLAKELEKKTGIKPEKIKIEVTVTKLPDGSYLITIKATLEDKEVEKTYTIASAG [r14_226_JUSTAS],3.11 ± 0.21,2.68 ± 0.12,2.28 ± 0.066
SMPEKVTFPFNIPLEEYSLEEIKEAVRERLEKEGYKVLKPDLFPEQEKLAKEAPPEAELPLLVEALVVPGSA [r9_1163_TrMRF],0.411 ± 0.078,0.0434 ± 0.28,-0.19 ± 0.25
SAGGSAGGSAGGSVTVERYPDGKVTTTTTDPTRPVTTVTLAEVEPGPGKVLTETVTPVPSAGGSAGGSAGGS [r10_613_JUSTAS],0.835 ± 0.057,1.12 ± 0.1,1.3 ± 0.14
SDREFEAVFLVETPEEVEALARELALPGVEVEVHVLPAPYLDPETGEPRPFLLAVVRVRVPVPPPGPGALSA [r9_962_TrMRF],0.969 ± 0.044,2.12 ± 0.088,2.56 ± 0.055
SAGKKKKEVKKITLVIEFPEEMTEEELKERAEKLAEELKKKFPKIKKIEVKVEKKDGKLIVTVEIEIEKSAG [r5_446_TrROS_Hall],2.02 ± 0.064,1.88 ± 0.15,1.78 ± 0.079
SAMTITVVADSAEEAERAARELAERLREALRELGIEGAEIEIKVTVLPAPPPERVLVRDPETDEWKEVPSAG [r14_475_TrROS_Hall],0.184 ± 0.14,0.981 ± 0.11,1.18 ± 0.031
SMPEPLVLRVRVRDPENPEPVLEFELVIPPDGGVLVLARHPDRVEVREMPLEEAIDLLLSLPFEIEEVEGSA [r9_470_TrMRF],2.85 ± 0.068,3.14 ± 0.14,3.32 ± 0.085
SAGGSAMTPEEVREKAEEIAETLAAEAREAGYEVEVKAKVEGLPEKYARVTVELNGARVEVLIPLDSAGGSA [r15_432_TrMRF],0.453 ± 0.059,0.125 ± 0.09,-0.311 ± 0.18
SAGGSAGGMPVTPEEARAIAEELRAELGATTVEVEVSPDGRTVTITITSSEDGKVLTRTIEFEASAGGSAGG [r6_550_JUSTAS],2.25 ± 0.091,2.29 ± 0.059,2.33 ± 0.036
SPAKPVPIEITMHGDGMFEIRLPNGKEISFPNPDGQWAQATVDPDEGTIEIEMYNNGKRHTFEIPLPPNDSA [r9_226_TrROS],0.153 ± 0.14,0.459 ± 0.16,0.499 ± 0.17
SAGGSAEVTITVEYDEETGVLKITITVPPGVTVEEIAEALKKLVPDVKVEKNEDGTITVYVKLPEKSAGGSA [r15_1057_TrROS_Hall],2.44 ± 0.16,4.07 ± 0.33,4.36 ± 0.16
SAGSIPLDIAKSLGGKTEVSSSPVPLGGGMTATLTTVTATLPDKIVTITITTLADPTVTEVTITTEPIKSAG [r5_323_JUSTAS],1.04 ± 0.068,1.14 ± 0.13,1.23 ± 0.039
